Experimental data from patent US20140099280A1.

T1: truncated human IL-33 (IL-33aa112-270)
T1 chain: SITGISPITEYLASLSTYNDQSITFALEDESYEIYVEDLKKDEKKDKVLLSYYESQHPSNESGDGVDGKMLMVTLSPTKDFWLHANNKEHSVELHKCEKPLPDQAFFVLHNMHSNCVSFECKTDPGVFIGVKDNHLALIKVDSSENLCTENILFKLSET

T2: whole human interleukin 33 (IL-33aa1-270)
T2 chain: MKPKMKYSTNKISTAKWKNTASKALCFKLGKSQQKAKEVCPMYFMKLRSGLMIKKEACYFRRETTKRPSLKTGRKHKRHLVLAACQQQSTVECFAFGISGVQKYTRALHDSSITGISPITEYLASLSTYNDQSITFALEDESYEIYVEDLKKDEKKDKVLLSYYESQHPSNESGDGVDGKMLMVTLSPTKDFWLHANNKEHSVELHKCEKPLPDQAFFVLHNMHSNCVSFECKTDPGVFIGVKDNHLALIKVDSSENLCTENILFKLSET


What was measured:
[1] = molecular target: ST2 receptor on murine MC/9 mast cells (murine (MC/9 mast cell line)) (UniProt P14719); assay: cell-based or functional assay
[2] = molecular target: T1, truncated human IL-33 (IL-33aa112-270)
[3] = molecular target: T2, whole human interleukin 33 …

Chain of UniProt P14719 (P14719 27-567): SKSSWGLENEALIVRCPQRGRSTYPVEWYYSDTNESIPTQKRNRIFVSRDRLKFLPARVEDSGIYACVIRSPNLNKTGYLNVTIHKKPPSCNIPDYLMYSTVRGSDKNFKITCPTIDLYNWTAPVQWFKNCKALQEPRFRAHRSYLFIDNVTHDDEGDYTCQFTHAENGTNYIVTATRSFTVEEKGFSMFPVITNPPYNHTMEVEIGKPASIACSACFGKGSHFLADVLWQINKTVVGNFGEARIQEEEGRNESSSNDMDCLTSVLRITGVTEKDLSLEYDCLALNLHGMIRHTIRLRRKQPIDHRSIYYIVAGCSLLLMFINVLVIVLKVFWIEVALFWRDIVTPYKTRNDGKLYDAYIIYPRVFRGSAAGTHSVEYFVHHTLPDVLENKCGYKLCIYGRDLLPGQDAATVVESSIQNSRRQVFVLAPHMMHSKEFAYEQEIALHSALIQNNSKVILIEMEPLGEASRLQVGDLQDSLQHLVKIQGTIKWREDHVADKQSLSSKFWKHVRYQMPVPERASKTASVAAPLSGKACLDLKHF

Row | Molecule | secretion of IL-6 by MC/9 mast cells (ELISA), relative to whole IL-33 (fold vs whole IL-33) [1] | cleavage in vitro, western blot [2] | cleavage in vitro, SDS-PAGE and western blot [3]
1 | human cathepsin G (protein) IIGGRESRPHSRPYMAYLQIQSPAGQSRCGGFLVREDFVLTAAHCWGSNINVTLGAHNIQRRENTQQHITARRAIRHPQYNQRTIQNDIMLLQLSRRVRRNRNVNPVALPRAQEGLRPGTLCTVAGWGRVSMRRGTDTLREVQLRVQRDRQCLRIFGSYDPRRQICVGDRRERKAAFKGDSGGPLLCNNVAHGIVSYGKSSGVPPEVFTRVSSFLPWIRTTMRS | – | the truncated form IL-33aa112-270, which remains intact in the presence of these proteases | Human IL-33 is the target of the recombinant proteases Cathepsin G (Cat G), Elastase 2 (Elastase), and Proteinase 3 (PR3), which generate, in vitro, the three mature fragments IL-33aa95-270, IL-33aa99-270 and IL-33aa109-270
2 | neutrophil elastase 2 (protein) IVGGRRARPHAWPFMVSLQLRGGHFCGATLIAPNFVMSAAHCVANVNVRAVRVVLGAHNLSRREPTRQVFAVQRIFENGYDPVNLLNDIVILQLNGSATINANVQVAQLPAQGRRLGNGVQCLAMGWGLLGRNRGIASVLQELNVTVVTSLCRRSNVCTLVRGRQAGVCFGDSGSPLVCNGLIHGIASFVRGGCASGLYPDAFAPVAQFVNWIDSIIQ | – | the truncated form IL-33aa112-270, which remains intact in the presence of these proteases | Human IL-33 is the target of the recombinant proteases Cathepsin G (Cat G), Elastase 2 (Elastase), and Proteinase 3 (PR3), which generate, in vitro, the three mature fragments IL-33aa95-270, IL-33aa99-270 and IL-33aa109-270
3 | leukocyte proteinase 3 (protein) IVGGHEAQPHSRPYMASLQMRGNPGSHFCGGTLIHPSFVLTAAHCLRDIPQRLVNVVLGAHNVRTQEPTQQHFSVAQVFLNNYDAENKLNDVLLIQLSSPANLSASVATVQLPQQDQPVPHGTQCLAMGWGRVGAHDPPAQVLQELNVTVVTFFCRPHNICTFVPRRKAGICFGDSGGPLICDGIIQGIDSFVIWGCATRLFPDFFTRVALYVDWIRSTLR | – | the truncated form IL-33aa112-270, which remains intact in the presence of these proteases | Human IL-33 is the target of the recombinant proteases Cathepsin G (Cat G), Elastase 2 (Elastase), and Proteinase 3 (PR3), which generate, in vitro, the three mature fragments IL-33aa95-270, IL-33aa99-270 and IL-33aa109-270

Further lines, with some results ahead:

Row | secretion of IL-6 by MC/9 mast cells (ELISA), relative to whole IL-33 (fold vs whole IL-33) [1] | Molecule | cleavage in vitro, western blot [2] | cleavage in vitro, SDS-PAGE and western blot [3]
4 | 4 | IL-33aa109-270 (from UniProt O95760 109-270) (ligand) | – | –
5 | 4 | IL-33aa95-270 (from UniProt O95760 95-270) (ligand) | – | –
6 | 4 | IL-33aa99-270 (from UniProt O95760 99-270) (ligand) | – | –
